Experimental findings from the Immune Epitope Database (IEDB) are described below.

Experiment [1] has as its target HLA-B*08:02. The experiment can be described thus: IEDB peptide-MHC binding, purified MHC/direct/fluorescence; filed as Kd, often an IC50 or EC50 that approximates it; ≥ and ≤ were set here for values at or beyond the usual limits of such assays.
Experiment [2] has as its target HLA-B*46:01. The description is as above.
Experiment [3] deals with HLA-B*18:01. The experiment is described as above.
Experiment [4] concerns the target HLA-A*02:01. The description is as above.
Experiment [5] deals with HLA-B*15:01. Described as above. Particulars: source organism: Giardia lamblia ATCC 50803.
Experiment [6] concerns the target HLA-B*08:01. The experiment is described as above. Particulars: source organism: Giardia lamblia ATCC 50803.
Experiment [7] concerns the target HLA-A*02:12. The experiment is described as above. The conditions noted are these: source organism: Giardia lamblia ATCC 50803.
Experiment [8] concerns the target HLA-A*03:01. The experiment is described as above. Particulars: source organism: Giardia lamblia ATCC 50803.
Experiment [9] addresses HLA-A*31:01. The description is as above.
Experiment [10] has as its target HLA-B*07:02. The description is as above.
Experiment [11] has as its target HLA-A*01:01. The description is as above.
Experiment [12] addresses HLA-B*38:01. The experiment is described as above. Particulars: source organism: Giardia lamblia ATCC 50803.
Experiment [13] addresses HLA-B*58:01. The description is as above.
The target of experiment [14] is HLA-A*69:01. Described as above.
The target in experiment [15] is HLA-A*02:11. The description is as above. The conditions noted are these: source organism: Giardia lamblia ATCC 50803.
Experiment [16] concerns the target HLA-B*48:01. The description is as above.
For experiment [17], the target named is HLA-B*27:05. Described as above.
The target in experiment [18] is HLA-A*26:01. The description is as above. The conditions noted are these: source organism: Giardia lamblia ATCC 50803.
The target in experiment [19] is HLA-B*57:01. The description is as above.
Experiment [20] has as its target HLA-A*02:03. Described as above. The conditions noted are these: source organism: Giardia lamblia ATCC 50803.
Experiment [21] addresses HLA-B*40:01. The experiment is described as above.
For experiment [22], the target named is HLA-A*11:01. The description is as above.
Experiment [23] has as its target HLA-A*30:01. The experiment can be described thus: IEDB peptide-MHC binding, purified MHC/competitive/fluorescence; filed as Kd, often an IC50 or EC50 that approximates it; ≥ and ≤ were set here for values at or beyond the usual limits of such assays. The conditions noted are these: source organism: Giardia lamblia ATCC 50803.
For experiment [24], the target named is HLA-B*15:09. Described as above. The conditions noted are these: source organism: Giardia lamblia ATCC 50803.
Experiment [25] has as its target HLA-B*39:01. The description is as above. Particulars: source organism: Giardia lamblia ATCC 50803.
Experiment [26] has as its target HLA-B*15:17. The experiment is described as above. Particulars: source organism: Giardia lamblia ATCC 50803.
Experiment [27] concerns the target HLA-A*68:02. The experiment can be described thus: IEDB peptide-MHC binding, purified MHC/direct/fluorescence; filed as Kd, often an IC50 or EC50 that approximates it; ≥ and ≤ were set here for values at or beyond the usual limits of such assays. The conditions noted are these: source organism: Marburg virus - Musoke, Kenya, 1980.
Experiment [28] has as its target HLA-A*26:03. The description is as above. The conditions noted are these: source organism: Ravn virus - Ravn, Kenya, 1987.
For experiment [29], the target named is HLA-B*44:02. Described as above. Particulars: source organism: Marburg virus - Musoke, Kenya, 1980.
Experiment [30] addresses HLA-B*08:03. The experiment is described as above. The conditions noted are these: source organism: Ravn virus - Ravn, Kenya, 1987.
In experiment [31] the target is HLA-A*26:02. The description is as above. The conditions noted are these: source organism: Ravn virus - Ravn, Kenya, 1987.
For experiment [32], the target named is HLA-B*39:01. The description is as above. The conditions noted are these: source organism: Ravn virus - Ravn, Kenya, 1987.
Experiment [33] addresses HLA-B*15:17. The experiment is described as above. The conditions noted are these: source organism: Marburg virus - Musoke, Kenya, 1980.
Experiment [34] deals with HLA-B*15:02. The description is as above. Particulars: source organism: dengue virus type 4.
Setting [35] is: source organism: Giardia lamblia ATCC 50803.
Setting [36] is: source organism: Marburg virus - Musoke, Kenya, 1980.

For LPVFATIGL, the Kd (as a rule, a measure of binding affinity in units of concentration) in experiment [1] (setting [35]) is ≥ 20 µM; in experiment [2] (setting [35]) it was ≥ 20 µM; in experiment [3] (setting [35]), 3.1 µM; in experiment [4] (setting [35]), 7.53 µM; in experiment [5], ≥ 20 µM; in [6] it was ≥ 20 µM. Further, the Kd in experiment [7] was 0.393 µM; in [8] it was ≥ 20 µM; in experiment [9] (setting [35]), ≥ 20 µM; in experiment [10] (setting [35]), 0.0583 µM; in experiment [11] (setting [35]) it was ≥ 20 µM; in experiment [12] it was ≥ 20 µM. In addition, the Kd in experiment [13] (setting [35]) is ≥ 20 µM; in experiment [14] (setting [35]), 0.0117 µM; in [15], 0.146 µM; in [16] (setting [35]), ≥ 20 µM; in [17] (setting [35]) it was ≥ 20 µM; in experiment [18], ≥ 20 µM. Moreover, the Kd in [19] (setting [35]) is ≥ 20 µM; in experiment [20] it was ≥ 20 µM; in [21] (setting [35]), ≥ 20 µM; in experiment [22] (setting [35]), ≥ 20 µM; in experiment [23], ≥ 20 µM; in experiment [24] it was 1.98 µM. The Kd in experiment [25] is 0.0902 µM; in [26], ≥ 20 µM.
For AEALLADGL, the Kd in experiment [1] (source organism: Ravn virus - Ravn, Kenya, 1987) is ≥ 20 µM; in experiment [27] it was ≥ 20 µM; in experiment [3] (setting [36]), 1.75 µM; in [28] it was ≥ 20 µM; in [4] (setting [36]) it was ≥ 20 µM; in experiment [29], ≥ 10 µM. For the same sequence, the Kd in experiment [30], in experiment [9] (setting [36]), in experiment [10] (setting [36]), in experiment [31], in experiment [11] (setting [36]) and in experiment [32] was ≥ 20 µM throughout. For the same sequence, the Kd in experiment [13] (setting [36]), in experiment [14] (setting [36]), in experiment [16] (setting [36]), in experiment [17] (setting [36]), in experiment [19] (setting [36]) and in experiment [33] was ≥ 20 µM throughout. Besides, the figures for the Kd in [21] (setting [36]) and in experiment [22] (setting [36]) were 0.0113 µM and ≥ 20 µM, respectively.
Take AQEDDQYVF: the Kd in [2] (source organism: dengue virus type 4) and in experiment [34] was ≥ 20 µM throughout.
